“Also recorded” adds a separate entry of the source.
Key:
[1] = type: physicochemical
Method: Three different buffer systems, sodium acetate, histidine hydrochloride and sodium dihydrogen phosphate, were initially evaluated, at various different pH levels, for IMH001. […] The next step evaluated a number of excipients, including sucrose, trehalose, mannitol, proline, arginine hydrochloride, glycine, solidum chloride, PS20 and PS80. According to the changes in stability (CEX-HPLC) results at 50° C. for 1 week, comparison was carried out for the formulation with different excipients. […] It was unknown, however, whether the selected buffer and excipient would allow a protein solubility of IMH001 suitable for subcutaneous injection at a high concentration. The solubility and viscosity of the protein at concentrations of 100 mg/ml and 150 mg/ml in histidine hydrochloride buffer system (pH 5.8) were therefore assessed. […] PS80 (Polysorbate 80) was then tested for its ability to improve durability and stability of the candidate formulations, at different concentrations of sucrose for a protein concentration of 100 mg/ml.

[2] = system: macrophage activation syndrome (MAS) model in NOG-EXL mice (overexpress human IL-3 and GM-CSF); test: macrophage activation syndrome (MAS) model induced by CBMC transplantation in NOG-EXL mice; type: in vivo
Method: This study is performed to evaluate the in vivo efficacy of IMH001 (see sequences in Table 1), a GM-CSF neutralization antibody, on delaying the disease progression in a macrophage activation syndrome (MAS) model (induced by CBMC transplantation) in NOG-EXL mice. This lymphocyte-independent, effector-driven MAS mice model can be established by engrafting human umbilical cord blood (UCB) into NOG-EXL mice. NOG-EXL (NOD.Cg-Prkdc^scidIL2g^tm1SugTg (SV40/HTLV-IL3, CSF2) is a gene modified strain based on NOG (NOD.Cg-Prkdc^scidIL2^tm1Sug) mice, which is immunodeficient and overexpress human IL-3 and GM-CSF continuously, which can enrich the myeloid cell populations, including Dc, monocyte and macrophage, following human stem cell engraftment. A total of 46 NOG-EXL and 8 NOG mice were used in the study.
Five to six-week-old NOG-EXL mice were irradiated with 1 Gy before tail vein injection of OKT3-pretreated cord blood mononuclear cells (CBMC) reconstitution. The day of reconstruction was defined as Day 0. OKT3-pretreated CBMC engrafted NOG-EXL mice were treated with biweekly i.p. doses of PBS or 10 mg/kg IMH001 starting from week 1 of engraftment. Animal body weights, CBC counting, and serum ferritin were measured at indicated time points.
Four NOG mice (G1) and 14 NOG-EXL mice (6 mice for G2 and 8 mice for G3, respectively) were dosed one week after reconstruction (Day 7), twice a week for 15 weeks. The grouping and dosing regimens were as follows in Table 2:
Body weight: The body weight of mice was measured and recorded once a week after CBMC transplantation.
CBC counting: Whole blood was collected from mice and counted by a CBC machine at week 4, 8 and 16. And at the end of the study, i.e. week 16, total bone marrow viable cells were also counted. Before blood collection, mice were anesthetized with 3-4% isoflurane.
Ferritin, fibrinogen and triglycerides: Serum was collected from mice at week 8 and 16. Then measured separately using ELISA kits. Prior to blood collection, mice were anesthetized with 3-4% isoflurane.
Experimental endpoint collection: The endpoint is Day 112/Week 16. Spleens were collected and weighed from all mice of each groups; cell smears from bone marrow, sections of liver and spleen were collected for Wright Giemsa staining to detect the presence of hemophagocytosis. Activated lymphoid tissue, spleen/lymph nodes, liver, and meninges were collected for H&E section to detect inflammatory cell infiltration and depletion of lymphoid follicles in spleen/lymph nodes.
All data statistical analysis methods involved in this project needed to be consistent with the protocol, and the results were expressed as mean±SEM. Firstly, F-test (IDBS E-WorkBook 10.5.0 (64 bit) © TDBS) was used to analyze the homogeneity of variance. If the variance was homogeneity (p>0.05), one-way ANOVA was carried out. T-test was used for two groups comparation, and Dunnett's multiple comparison method was used for multiple groups comparation. If the variance was heterocedasticity (p≤0.05), Kruskal Wallis method was performed for nonparametric test, U-test was used for two groups comparation (Kruskal Wallis parameter test has significant difference, p≤0.05), and Dunn's multiple comparison method was used for multiple groups comparation (Kruskal Wallis parameter test has no significant difference, p>0.05). p<0.05 was considered as significant difference.

[3] = 100 mg/ml and 150 mg/ml in 20 mmol/L histidine hydrochloride pH 5.8, 4° C. and 25° C. for 48 hours
[4] = serum, week 8 and 16, 10 mg/kg i.p. BIW

B1: IMH001: humanized IgG1 anti-GM-CSF neutralization antibody with VH of SEQ ID NO:1 and VL of SEQ ID NO:2 (antibody, V domains shown)
VH: EVQLVQSGAEVKKPGASVKVSCKASGYTFTSHYLHWVRQAPGQGLEWMGWIFPGDDKTKYNEKFKGRVTMTSDTSISTAYMELSRLRSDDTAVYYCARGTKYLNWNFDVWGQGTTVTVSS
VL: DIQLTQSPSFLSASVGDRVTITCKANQNVGTTLAWYQQKPGKSPKALIYSASYRYSGVPDRFSGSGSGTDFTLTISSLQPEDFATYFCHQYTTYPLTFGGGTKVEIK
antibody stability in buffer systems [1]: stable
changes in appearance color, clarity, OD350, protein concentration and viscosity [1, 3]: no obvious changes
viscosity [1, 3]: lower than 10 cP
viscosity of samples with PS80 and different sucrose concentrations ([1]; protein concentration 100 mg/ml): acceptable
body weight ([2]; 10 mg/kg i.p. BIW (G3) vs vehicle control group (G2), Day 63 to Day 112, p<0.05): significantly increased; also recorded: reduced weight loss
disease development / progression (overall) ([2]; 10 mg/kg i.p. BIW for 15 weeks): completely reversed; also recorded: showed efficacy
NEUT percent ([2]; 10 mg/kg i.p. BIW vs untreated): recovery
RBC number in peripheral blood (anemia) ([2]; 10 mg/kg i.p. BIW vs untreated NOG-EXL, in words): effectively improve; also recorded: ameliorated anemia
HGB level ([2]; 10 mg/kg i.p. BIW vs untreated, Day 56): significantly higher; also recorded: increase
monocyte percent ([2]; 10 mg/kg i.p. BIW, considered pharmacological effect): decrease
total bone marrow viable cells (mean value) ([2]; day 112, 10 mg/kg i.p. BIW, vs NOG-EXL untreated 9.55, p=0.182): 11.6
RBC cell number ([2]; peripheral blood CBC, Day 56, 10 mg/kg i.p. BIW, vs untreated 6.45, p<0.001): 8.17
Fibrinogen [2, 4]: No significant changes
Triglyceride [2, 4]: No significant changes
Ferritin level ([2]; serum, wk 8 and wk 16, 10 mg/kg i.p. BIW vs untreated): effectively control; also recorded: significantly reduce; also recorded: inhibited ferritin increase
inflammatory infiltration (histopathology) ([2]; wk 16, H&E, liver and meninx): decreased; also recorded: improved significantly
lymphocyte exhaustion (histopathology) ([2]; wk 16, H&E, spleen and lymph nodes): effectively reduce; also recorded: improved significantly
hemophagocytosis (histopathology) ([2]; wk 16, Wright Giemsa staining of bone marrow smears, liver and spleen sections): effectively prevent; also recorded: improved significantly
